Measurements published in patent US20110229465A1, “COMPOSITION FOR TREATING DISEASE” (priority 2008, published 2011).

How the values were obtained:
Treg cells = settings: in vitro 50 nM MTX (highest concentration analyzed); reduced from 94%, p<0.05; cited from earlier work
[1] = test system: CD4+CD25+ regulatory T cells; experiment: in vitro proliferation assay with freshly isolated CD4+CD25+ regulatory T cells; format: cell-based, human
Protocol: 50 ml EDTA blood specimens were obtained from healthy control donors. Peripheral blood mononuclear cells (PBMCs), regulatory T cells (Tregs) and T helper cells as T responder cells (Tresps) were isolated from peripheral blood samples as previously described (Haas et al., 2007).
Freshly isolated Tregs were pre-incubated for 48 hours with 1 μg/ml plate bound antibody (BT061), 1 μg/ml soluble BT061 or Medium.
Freshly isolated Tregs (2.5×10^4, donor A) obtained from 2 donors (Exp. 1 and Exp. 2) were pre-incubated for 48 hours with either 1 μg/ml soluble or plate bound BT061. To achieve allogeneic stimulation the 2.5×10^4 pre-incubated Tregs were then transferred to 1×10^5 T cells as responder cells (Tresps) from a second donor (donor B) in the presence of 2×10^5 T cell depleted and irradiated (30 Gray) PBMCs (donor A). After 4 days of stimulation 1 μCi [3H] thymidine per well was added and proliferation was measured after additional 16 hours.
The percentage of Treg mediated inhibition of Tresp proliferation is shown in FIG. 1 as the percent suppression of proliferation of Tresps incubated with PBMC in the absence of Tregs. Results are shown for the Tregs obtained from the two donors (Exp. 1 and Exp. 2). […]

[2] = plasma levels of BT061 after intravenous administration in healthy volunteers; format: in vivo, human; settings: range in three volunteers
Excerpt: This is considered to reflect a faster target mediated clearance.

[3] = test system: rheumatoid arthritis patients; experiment: monotherapy trial of BT061 in rheumatoid arthritis patients, ACR improvements; format: in vivo, human; settings: week 7, blinded data from 8 individuals (2 placebo, six BT061)
Excerpt: This system defines a value of ACR 20 as an at least 20% improvement in tender and swollen joint counts and at least 20% improvement in 3 of the 5 remaining ACR core set measures: patient and physician global assessments, pain, disability, and an acute phase reactant, such as C-reactive protein (CRP) or Erythrocyte Sedimentation Rate (ESR). Similarly, ACR 50 and ACR 70 scores define an at least 50% and an at least 70% improvement, respectively.
As indicated above, in one aspect of the invention the agent and/or methotrexate are administered subcutaneously. In general, as is known in the art, subcutaneous doses need to be larger than intravenous doses in order to achieve the equivalent therapeutic effect.

[4] = 2 mg i.v. once weekly for six weeks
[5] = 50 mg s.c. once weekly for six weeks

## CN(Cc1cnc2nc(N)nc(N)c2n1)c1ccc(C(=O)N[C@@H](CCC(=O)O)C(=O)O)cc1 [MTX, 4-amino-N10-methylpteroyl glutamic acid]
Treg cells
  suppressive activity of Treg cells: 88%

B1: BT061: humanized anti-CD4 antibody derived from mouse B-F5, V domains SEQ ID NO: 1 and 2, activates CD4+CD25+ regulatory T cells (antibody, V domains shown)
VH: EEQLVESGGGLVKPGGSLRLSCAASGFSFSDCRMYWLRQAPGKGLEWIGVISVKSENYGANYAESVRGRFTISRDDSKNTVYLQMNSLKTEDTAVYYCSASYYRYDVGAWFAYWGQGTLVTVSS
VL: DIVMTQSPDSLAVSLGERATINCRASKSVSTSGYSYIYWYQQKPGQPPKLLIYLASILESGVPDRFSGSGSGTDFTLTISSLQAEDVAVYYCQHSRELPWTFGQGTKVEIK
modifications: V domain of H chain of humanized antibody hB-F5H37L; V domain of K chain of humanized antibody hB-F5L4M
[1]; Tregs pre-incubated 48 hours with 1 μg/ml plate bound BT061, versus medium alone
  Treg mediated suppression of Tresp proliferation: able to reduce average proliferative responses of allogeneic stimulated Tresps
[1]; Tregs pre-incubated 48 hours with 1 μg/ml soluble BT061, versus medium alone
  Treg mediated suppression of Tresp proliferation: able to reduce average proliferative responses of allogeneic stimulated Tresps
[2]; dosage 2.5 mg intravenous
  plasma level, conc. 3 h post end of infusion: 0 ng/mL
  plasma level, effective cmax (post end of infusion): 60 to 140 ng/mL
[2]; dosage 5 mg intravenous
  plasma level, conc. 3 h post end of infusion: 90 to 160 ng/mL
  plasma level, effective cmax (post end of infusion): 320 to 440 ng/mL
[2]; dosage 10 mg intravenous
  plasma level, conc. 3 h post end of infusion: 460 to 1400 ng/mL
  plasma level, effective cmax (post end of infusion): 800 to 2000 ng/mL
[2]; dosage 20 mg intravenous
  plasma level, conc. 3 h post end of infusion: 1700 to 3300 ng/mL
  plasma level, effective cmax (post end of infusion): 2300 to 4100 ng/mL
[2]; dosage 40 mg intravenous
  plasma level, conc. 3 h post end of infusion: 4400 to 6100 ng/mL
  plasma level, effective cmax (post end of infusion): 5900 to 6500 ng/mL
[2]; dosage 60 mg intravenous
  plasma level, conc. 3 h post end of infusion: 7700 to 11080 ng/mL
  plasma level, effective cmax (post end of infusion): 8900 to 15100 ng/mL
[3]; [4]
  percentage of patients showing ACR20: 50%
  percentage of patients showing ACR50: 25%
  percentage of patients showing ACR70: 12.5%
[3]; [5]
  percentage of patients showing ACR20: 50%
  percentage of patients showing ACR50: 25%
  percentage of patients showing ACR70: 12.5%
